Reference: patent US20050106100A1, “Compounds containing matrix metalloproteinase substrates and methods of their use” (priority 2003, published 2005)

B1: MMP-2 (Homo sapiens) (protein)
chain: YNFFPRKPKWDKNQITYRIIGYTPDLDPETVDDAFARAFQVWSDVTPLRFSRIHDGEADIMINFGRWEHGDGYPFDGKDGLLAHAFAPGTGVGGDSHFDDDELWTLGEGQVVRVKYGNADGEYCKFPFLFNGKEYNSCTDTGRSDGFLWCSTTYNFEKDGKYGFCPHEALFTMGGNAEGQPCKFPFRFQGTSYDSCTTEGRTDGYRWCGTTEDYDRDKKYGFCPETAMSTVGGNSEGAPCVFPFTFLGNKYESCTSAGRSDGKMWCATTANYDDDRKWGFCPDQGYSLFLVAAHEFGHAMGLEHSQDPGALMAPIYTYTKNFRLSQDDIKGIQELYGASPDIDLGTGPTPTLGPVTPEICKQDIVFDGIAQIRGEIFFFKDRFIWRTVTPRDKPMGPLLVATFWPELPEKIDAVYEAPQEEKAVFFAGNEYWIYSASTLERGYPKPLTSLGLPPDVQRVDAAFNWSKNKKTYIFAGDKFWRYNEVKKKMDPGFPKLIADAWNAIPDNLDAVVDLQGGGHSYFFKGAYYLKLENQSLKSVKFGSIKSDWLGC
B2: mouse MMP9 (Mus musculus) (protein)
chain: FQTFKGLKWDHHNITYWIQNYSEDLPRDMIDDAFARAFAVWGEVAPLTFTRVYGPEADIVIQFGVAEHGDGYPFDGKDGLLAHAFPPGAGVQGDAHFDDDELWSLGKGVVIPTYYGNSNGAPCHFPFTFEGRSYSACTTDGRNDGTPWCSTTADYDKDGKFGFCPSERLYTEHGNGEGKPCVFPFIFEGRSYSACTTKGRSDGYRWCATTANYDQDKLYGFCPTRVDATVVGGNSAGELCVFPFVFLGKQYSSCTSDGRRDGRLWCATTSNFDTDKKWGFCPDQGYSLFLVAAHEFGHALGLDHSSVPEALMYPLYSYLEGFPLNKDDIDGIQYLYGRGSKPDPRPPATTTTEPQPTAPPTMCPTIPPTAYPTVGPTVGPTGAPSPGPTSSPSPGPTGAPSPGPTAPPTAGSSEASTESLSPADNPCNVDVFDAIAEIQGALHFFKDGWYWKFLNHRGSPLQGPFLTARTWPALPATLDSAFEDPQTKRVFFFSGRQMWVYTGKTVLGPRSLDKLGLGPEVTHVSGLLPRRLGKALLFSKGRVWRFDLKSQKVDPQSVIRVDKEFSGVPWNSHDIFQYQDKAYFCHGKFFWRVSFQNEVNKVDHEVNQVDDVGYVTYDLLQCP
notes: The turnover of different substrates by active MMP-2 and active MMP-9 was determined using this assay

How the values were obtained:
Format in all cases: biochemical
[1] = substrate: CC(=O)N1CCC[C@H]1C(=O)N[C@@H](CCCN)C(=O)NCC(=O)N[C@@H](CCc1ccccc1)C(=O)N[C@@H](CC(C)C)C(=O)NNC(=O)c1ccc(N/N=C/c2ccccc2S(=O)(=O)O)nc1; assay: Kinetic measurements of substrate hydrolysis by active MMP-2 (radio HPLC assay); settings: other: active MMP-2 final concentration 10 nM, 37° C., 60 minutes, radiolabeled test substrate, pH 7.5
Description: (§2) Purified MMP-2 (10 μg) or MMP-9 (10 μg) were reconstituted in 100 μL of TCN buffer. […] Pro-MMP-2 was activated by incubation with 2 nM APMA for 2 hours at 37° C. At the end of incubation 100 μl of 100% glycerol was added to active MMP-2 and active MMP-9 (final concentration 50% glycerol). Active MMP-2 and active MMP-9 were aliquoted and stored at −20° C.
(§3) The level of active protease was always quantified by active site titration studies prior to kinetic studies. The active site of MMP-9 and MMP-2 was titrated using the GM6001 dissolved in 100% DMSO at a stock concentration of 2.5 mM. Dilutions (1:2) of GM6001 were prepared in TCN buffer to give a final concentration of 5 nM to 0.04 nM GM6001 in the active site titration assay. Activated MMP-2 or activated MMP-9 (2 nM) was preincubated with increasing concentrations of GM60001 at 37° C. for 15 minutes in 96 well black microtiter plates. […] Plates were read on fluorescence spectrophotometer at excitation wavelength of 320 nm and emission wavelength of 395 nm. The concentration of the active enzyme was determined using the Morrison equation and Kaleidagraph software (Reading, Pa.).
(§4) The kinetic parameters of substrate hydrolysis were determined using a radio HPLC assay. The turnover of different substrates by active MMP-2 and active MMP-9 was determined using this assay. […] The radiolabel was detected by a IN/US beta ram detector. […]

[2] = substrate: CC(=O)N1CCC[C@H]1C(=O)N[C@@H](CC(C)C)C(=O)NCC(=O)N[C@@H](CCc1ccccc1)C(=O)N[C@@H](Cc1ccc(O)cc1)C(=O)N[C@@H](CC(C)C)C(=O)NNC(=O)c1ccc(N/N=C/c2ccccc2S(=O)(=O)ON)nc1; assay: as above; settings: other: active MMP-2 final concentration 10 nM, 37° C., 60 minutes, radiolabeled test substrate, pH 7.5
Description: as §2, §3, §4

[3] = substrate: CC(=O)N1CCC[C@H]1C(=O)N[C@@H](CCCN)C(=O)NCC(=O)N[C@@H](CCc1ccccc1)C(=O)N[C@@H](CC(C)C)C(=O)NNC(=O)c1ccc(N/N=C/c2ccccc2S(=O)(=O)O)nc1; assay: Substrate hydrolysis assay with mouse MMP9; settings: other: mouse MMP9; pH 7.5
Description: (§1) The kinetic parameters of substrate hydrolysis were determined using a radio HPLC assay. The turnover of different substrates by active MMP-2 and active MMP-9 was determined using this assay. A stock solution of different test substrates (10 mM) was prepared in 100% DMSO. Stock solutions of the test substrates were diluted 1000 fold (10 nM) in buffer (50 mM Hepes/pH 7.5, 10 mM CaCl2, 0.1% Brij) to give working stock solution. Working stock solution of the test substrate (15 μl) was added to buffer (120 μL) in a test tube and warmed at 37° C. for 2 minutes. To this solution 15 μL of working stock of active MMP-2 (final concentration 10 nM) or active MMP-9 was added (final concentration 2 nM). Finally, 4 μCi of radiolabeled test substrate was added and the solution was mixed and immediately 67.5 µL of the mix was transferred to HPLC vials containing 7.5 μl of 0.5M EDTA for t=0 minute measurement. The rest of the mix in the test tube was incubated at 37° C. for 60 minutes. At the 60 minute time point 67.5 μl of the mix was transferred to the HPLC vial containing 7.5 μL of 0.5 M EDTA for t=60 minute measurement. […] Mobile phase A (MPA) was 25 mM ammonium acetate and mobile phase B (MPB) was 100% acetonitrile. […] The radiolabel was detected by a IN/US beta ram detector. […]

[4] = substrate: CC(=O)N1CCC[C@H]1C(=O)N[C@@H](CC(C)C)C(=O)NCC(=O)N[C@@H](CCc1ccccc1)C(=O)N[C@@H](Cc1ccc(O)cc1)C(=O)N[C@@H](CC(C)C)C(=O)NNC(=O)c1ccc(N/N=C/c2ccccc2S(=O)(=O)ON)nc1; assay: Substrate hydrolysis assay with mouse MMP9; settings: other: mouse MMP9; pH 7.5
Description: as §1

Protein	kcat/Km [1] [M⁻¹ s⁻¹]	kcat/Km [2] [M⁻¹ s⁻¹]	kcat/Km [3] [M⁻¹ s⁻¹]	kcat/Km [4] [M⁻¹ s⁻¹]
B1	63700	63200		
B2			897	> 100000
